Results on 19 sequences are retold here after the DeepSol protein solubility set.

The nature of the data set: soluble on expression in E. coli; label from the status in PepcDB or PDB records.
In the case of “MSLKTVFKPTLLAVLVAASAPVLAHSLIADTKAPSPTTKAFAAEQRNTLPFADQEDFKLVEKGLIAQQKDLEIKDANGKVVWELGNYRFLLDGLDYDSIHPSLQRQAQLNMHHGLYKVTDRIYQVRGYDLANITFVKGDTGWIVFDPLTVPATAKAALDFVNQELGERPVKAVVYSHAHADHFGGVKGIVSQEQVDRGEVPIIAPKGFLNHAVAENVLAGNAMSRRTTYQYGNVLPKGATGQVDAAIGKNVAQGEVSLIAPTKVISEQTETVVIDGVTMEFQNTPGTESPAEMNTYFPQFKALWMAENTVGGLHNVYTLRGAEVRDAKAWSKYINESIHMYAKEADVMFASHTWPRWGNDNINHFLRKQRDMYGYIHDQALRLANHGVTINEIQDEFHVPDVLAHEWYNRGYHGSYHRNAKAVINKYLGYFDMNPATLRPLAPTDAAPKYVAAMGGMDNVIKLGKEAFDKGEFRWCAEIVDKAVFAEPSNKQARYLQADCLEQLGYQSESAGERNTYLMGAYELRNGVPKVSATKTAGADTVVAMDTELFLDYLGVRLNGDKAAGIDYTINFVLPDVNEKFLVELENAHLNNLKGIQSENPDMTLTLNRAQLNQVLMGKTTIQQLAKEGKAKIEGNAQALTDIAGMLDNFEFWFNIIEPKTKEGGSHHHHHH”, the “soluble on expression in E. coli” value is given as “soluble”. As to “MTDNTRLRIAMQKSGRLSDDSRELLARCGIKINLHTQRLIAMAENMPIDILRVRDDDIPGLVMDGVVDLGIIGENVLEEELLNRRAQGEDPRYFTLRRLDFGGCRLSLATPVDEAWDGPLSLNGKRIATSYPHLLKRYLDQKGISFKSCLLNGSVEVAPRAGLADAICDLVSTGATLEANGLREVEVIYRSKACLIQRDGEMEESKQQLIDKLLTRIQGVIQARESKYIMMHAPTERLDEVIALLPGAERPTILPLAGDQQRVAMHMVSSETLFWETMEKLKALGASSILVLPIEKMME”, the “soluble on expression in E. coli” value is on record as “soluble”.

In the case of “MMALDDTVTIKPIRAEHVESFHRALDAVSRERKYLSFLEAPPLEAVRAFVLDMIENDHPQFVAIADGDVIGWCDIRRQDRATRAHCGTLGMGILPAYRNKGLGARLMRRTLDAAHEFGLHRIELSVHADNARAIALYEKIGFAHEGRARDAVSIDGHYIDSLNMAIIFGN”, the “soluble on expression in E. coli” value is on record as “soluble”.

Turning to “MSKNIVVAPSILSADFSRLGEEIKAVDEAGADWIHVDVMDGRFVPNITIGPLIVDAIRPLTKKTLDVHLMIVEPEKYVEDFAKAGADIISVHVEHNASPHLHRTLCQIRELGKKAGAVLNPSTPLDFLEYVLPVCDLILIMSVNPGFGGQSFIPEVLPKIRALRQMCDERGLDPWIEVDGGLKPNNTWQVLEAGANAIVAGSAVFNAPNYAEAIAGVRNSKRPEPQLATV”, the “soluble on expression in E. coli” value is “soluble”.

Take “MWTATACSIDSSPSMWNCAEVMDSTRSELLQSTPEAEDGNIEYKLKLVNPSQYRFEHLVTQMKWRLQEGRGEAVYQIGVEDNGLLVGLAEEEMRASLKTLHRMAEKVGADITVLREREVDYDSDVPRKITEVLVRKVPDNQQFLDLRVAVLGNVDSGKSTLLGVLTQGELDNGRGRARLNLFRHLHEIQSGRTSSISFEILGFNSKGEVVNYSDSRTAEEICESSSKMITFIDLAGHHKYLHTTIFGLTSYCPDCALLLVSANTGIAGTTREHLGLALALKVPFFIVVSKVDLCAKTTVERTVRQLERVLKQPGCHKVPMLVTSEDDAVTAAQQFAQSPNVTPIFTLSSVSGESLDLLKVFLNILPPLTNSKEQEELMQQLTEFQVDEIYTVPEVGTVVGGTLSSGICREGDQLVVGPTDDGCFLELRVCSIQRNRSACRVLRAGQAATLALGDFDRALLRKGMVMVSPEMNPTICSVFEAEIVLLFHATTFRRGFQVTVHVGNVRQTAVVEKIHAKDKLRTGEKAVVRFRFLKHPEYLKVGAKLLFREGVTKGIGHVTDVQAITAGEAQATMGF”: the “soluble on expression in E. coli” value is “soluble”. Take “SAESWLRLSGAGPAEEAGPEGGLEEPDALDDSLTSLQWLQEFSILNAKAPALPPGGTDPHGYHQVPGSAAPGSPLAADPACLGQPHTPGKPTSSCTSRSAPPGLQAPPPDDVDYATNPHVKPPYSYATLICMAMQASKATKITLSAIYKWITDNFCYFRHADPTWQNSIRHNLSLNKCFIKVPREKDEPGKGGFWRIDPQYAERLLSGAFKKRRLPPVHIHPAFARQAAQEPSAVPRAGPLTVNTEAQQLLREFEEATGEAGWGAGEGRLGHKRKQPLPKRVAKVPRPPSTLLPTPEEQGELEPLKGNFDWEAIFDAGTLGGELGALEALELSPPLSPASHVDVDLTIHGRHIDCPATWGPSVEQAADSLDFDETFLATSFLQHPWDESGSGCLPPEPLFEAGDATLASDLQDWASVGAFL”: the “soluble on expression in E. coli” value is listed as “soluble”.

With “MLESNENRIQIMSTIAKIYRAMSRELNRRLGELNLSYLDFLVLRATSDGPKTMAYLANRYFVTQSAITASVDKLEEMGLVVRVRDREDARKILIEITEKGLETFNKGIEIYKKLANEVTGDLSEDEVILVLDKISKILKRIEEISQ”, the “soluble on expression in E. coli” value is “soluble”. For “GPGSMTTPNFELYGYFRSSCSGRLRIAFHLKSIPYTRHPVNLLKGEQHSDTYKSLNPTNTVPLLVVSNINNTVSPSSASFSIGQSLAALEYLEEALPTNARPLLPPISNPVARAHVRTICNIIACDVQPVTNLKIQKKVKALDGDPTVWSRDLATQGFGAVEKLLELSAGRFCVGDEITLADVCLVPAVWAAERVGMDLARFPITKRVFEEMLKEEAVQKAHWQKQEDTPEDLRA” the value was “soluble”; for “MVYLLDLSGVYCEPVEPRLLRLLAEESGEPVFYLSEAFYALLPRLKAEGAQALEALFPGASRLYPKAFRPRGLAFPEPFHLVSDLPPPEGVLAYHAPDKLEALALALEALGLAPGEAVYWDDNPLWVERARGLGVRAELFLP”, “soluble”; for “MKVTPINDYKDIHQDKETVLVLGYFDALHRGHKVLFDKARQIADEKQLEVAVFTFNESPQLTFQRYTDDLLLHITAPQRRCDLFKAYGTDQLYLTDFNSDFARTSSDDFITRYINRLKAQEIVVGFDYKFGHHRTDTDYLDRNFSGTVHVIEEQQSGGEKISSTRVRQLIREGNVKEANNLLGHEFSTRGIVVHGDARGRTIGFPTANLAPIDRTILPADGVYVADVVIDGKRYRSMTSLGKNVTFGGTELRLEANIFDFEGDIYGKTIEVFWLDYIRDMIKFNNIDELCDQLKADKKIAEKL”, “not soluble”. For “MSLTNLFQDDSLTLHTDLYQLNMMKAYFDDGLHERRSVFEVFFRDMPFDSGFVVFAGLERIIHYMQNLRFTETDIAYLHDELGFDGPFLEYLRNFKFKGNILAAKEGEFVFKTEPILQVEASLAEAQLIETALLNIVNFQTLIATKAARIRSVIDDETFAEFGTRRAQEMDAAIWGTRAAYIGGCDSTSNVRAGKIFGIPVSGTMAHAMVQAYRDELEAFRSYAKTHFDSIFLVDTYDTLKSGVPNAIKVAKEMGDKINFIGIRLDSGDMAFLSKKARQMLDEAGFTEAKIFASSDLDEHTILSLKAQKAKIDSWGVGTKLITAYDQPALGAVYKMAAIADENDILQDSIKLSSNTEKVSTPGKKKVYRIITNEDGLKAEGDYIALADESLENVDKLTMFHPVHTYIMKTVENFTARELLVPIFQNGELVYDMPSLDEIKAYKEENLALLWDEYKRTVRPEQYPVDLSVKCWKNKMRNIEKVRKSVQLHSPVELDMPFEGHHHHHH”, the “soluble on expression in E. coli” value is listed as “soluble”.

Regarding “MGSDKIHHHHHHMSENPIDAFIPEDIRDLYEIHNYRNAAQVLATGCPNEFQEIIEALRVFRLTLADIRKPGGNESDIPKRISGLLRAKGWMETRIKGDLLITKVSGTIDKNLGEKDLEGMEENESDTLEKIEELKNKGQVERIVRENFLDGHKVDYVKKRVAFDLEWNSKDQTFDRDLYAFRAFHECDLIDAAILLTRSASLNAVFEKLGPELNSDGTPKTSKNGKPKLIKTKYGASTTWMGKLLYRLNACRHGGCPVLALGITPNLITDWAEYESKNT”, the “soluble on expression in E. coli” value was “not soluble”. With “SSATPIVQFQGESNCLKCFRYRLNDKHRHLFDLISSTWHWASPKAPHKHAIVTVTYHSEEQRQQFLNVVKIPPTIRHKLGFMSMHLL”, the “soluble on expression in E. coli” value is “soluble”. For “MKDRELLAKSITTKDAVSDGRESPSLLSDKLSRLPWSTLYASVFCAGVLLLPFSGQAVEPPVAAKASENKNQLKTLQQDIAEKEKSVQQQKKQRSSLLDQLKQQENTISQTSRSLRETQAALAELSKDIASLTTSIEKLQNQQSQQQSILSKQLAAAFKQGKHSSLQLILSGEESQRSERILAYFSYLNEARQKAIEELKQTRTTLSAEKKMLEQKQNQHKALLDEQKAQQQKLEQARIARQKTLTSLEASLEKDQQSLAELKLNESRLRDQIAKAEREAKARAEREAKEAARVREQVKVKEQQAKKTGSSYKPSESERSLMARTGGLGRPGGQALWPVRGNVSHRFGEPLQGELRWKGMVITAPEGSEVKAIADGRVLLADWLQGYGLVVVIEHGKGDMSLYGYNQSALVNVGAQVKAGQPIALVGTSGGQGEPSLYFEIRRQGQAVNPQPWLGR” the value was “not soluble”; for “SLDTTRPLSWDFQSQLMSNLKILYCLNMLKLSNWYFGGIMKVYGLFGINENAINDFIENHIKTFTIINALNLETVKNLKEGDLVFITSTLREDLRNGTEGILGRVINVSLVPQMINGFEEKEIIAGRVQLEMLGFAKCVKYESIHVEITFRMY”, “not soluble”. Regarding “MAHHHHHHMPTTSMQAECDKIRSSGNECRRKFSGGNLLVVATDMDGTILDPKHRLTERTKDTLYELSTRGVHIIFATGRHHSCVHATRRDLLEHYKRRSTARGVPDSPTTGYDGFYIISSNGARVHNPNGDLIFLRDLDSDVVRVLYERFGIRDHGDDPRKVISVSAYQTEKWWINRTIMSDEESLAMFGVVPELHPDLKEFPTTGVGKVCFRCYDRDILHQYEAEIKEIFHGRATAVMSSEICLDVMAAEVSKAAALREIGRILNFDPEREAIAFGDSMNDGDMLCSVAKGCIMDNGQSRLKESLPHLEVVGSSSEDGVARKLQEVFQIFHE”, the “soluble on expression in E. coli” value is reported as “soluble”.

Take “MSLGPILVASEDYGRRVELSAMLRGFGYRVIEAENGLRTIDLLHRRKNIVLALLDVVMSDLSVGDLIKMIRVAGVAVPIVVIAQQENQELLQKALTAGAIDYWIHPVTLLRLRVTLDTLALISALEREVHYIRRKKENHLRFSDLSIKSRAMQIVLEQSKRAASSLQNLLIEGEVGTGRETLARIIHHEGLLSEGDFIRFQCLAIVDPEEENHQWFKEFIPLVSSLEKGTLCLCDVDRLEPIQQKRFMHYLKEREKATKDKVFPFRIIAISTSRLSDLVKEGFFLHSLFEQFSQLSISVPALRELRDDFPDLTQRLIDRIITETGRSHVHGLAGSALSLLMQYDWPGNRNGLENFLFRAILLSDGPLLTVRDFPQLMGNSLMNVPKIIESNMQEDHEQESVKFLDVDGHVRTFAEMERDIIEKAFKHYKGHMSEIARRLRIGRSTLYRKIEGLRAISSQEGHHHHHH”: the “soluble on expression in E. coli” value is reported as “soluble”. As to “MKKITLLSGILFLIGYSDAEVFESQNVRVKRNDFTNNYGYGPFGIGPTNGGFDSYGFYRDKFYNSGLPPLYSFASYRNYYHEISFHKNKYGQPAPTDFETLQQERYGPYYDGVWGYADHSKNWFGKR”, the “soluble on expression in E. coli” value is on record as “not soluble”.

In the case of “MQINGKAPRNKDLEPHSFELWLNAAKTNLDKYEMALIITATLGLRRGEVMGLRNESIKISHDQINDADVAQISIDMQRNTNELNGGPLKTKSSYRTIWAFGKTVDHLKYAMITADNLRQRNNIQAEKHWLWLNNDGNPLHPTHLNRLMRRVSNRSGVEVYPHLLRHYFATQAIAANKPQIDVMHYLGHKNLQMTADYTRSTKAASLNVFNSIDKFLLEHHHHHH”, the “soluble on expression in E. coli” value is recorded as “soluble”.
